Measured values taken from patent publication US20220340687A1.

Biological target: high affinity IgE receptor (FcεR1) (human) (UniProt P12319)
Experiment: flow cytometry of purified human pDCs, mean over all assayed donors

human immunoglobulin E (IgE), sequence (P01854 other isoform, or with tags, fused parts or gaps): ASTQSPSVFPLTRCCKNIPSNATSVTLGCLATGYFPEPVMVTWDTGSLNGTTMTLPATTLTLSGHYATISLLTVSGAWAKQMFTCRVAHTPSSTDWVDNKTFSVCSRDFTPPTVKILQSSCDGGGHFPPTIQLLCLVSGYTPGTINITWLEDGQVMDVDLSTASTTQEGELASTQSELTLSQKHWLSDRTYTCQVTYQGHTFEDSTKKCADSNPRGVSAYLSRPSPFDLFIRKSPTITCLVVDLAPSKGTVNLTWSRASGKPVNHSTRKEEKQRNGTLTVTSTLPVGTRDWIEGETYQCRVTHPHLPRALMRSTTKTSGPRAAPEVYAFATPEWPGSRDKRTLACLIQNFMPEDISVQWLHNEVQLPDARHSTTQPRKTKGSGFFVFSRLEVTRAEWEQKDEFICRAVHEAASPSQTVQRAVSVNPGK
high affinity IgE receptor (FcεR1) (human), sequence (P12319 26-257): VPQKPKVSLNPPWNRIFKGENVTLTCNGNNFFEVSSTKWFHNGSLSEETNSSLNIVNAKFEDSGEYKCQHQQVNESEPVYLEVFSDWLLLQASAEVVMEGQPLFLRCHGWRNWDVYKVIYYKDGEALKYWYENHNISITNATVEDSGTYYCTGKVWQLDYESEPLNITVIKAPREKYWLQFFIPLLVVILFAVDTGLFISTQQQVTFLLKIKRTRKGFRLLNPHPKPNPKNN

Substance: human immunoglobulin E (IgE) (from UniProt P01854 1-428) (antibody)
- percentage of pDCs displaying IgE bound to FcεR1: 45.7%
